Test results reported in patent publication US20190292517A1.

Molecular target: CD3 on human peripheral blood T cells (human) (UniProt P07766)
Experiment: cell-based or functional assay

fold expansion of human T cells at day 13, 0.5 ug anti-CD3 on APC-MS (1:1 with anti-CD28) | fold expansion of human T cells at day 13, 1 ug anti-CD3 on APC-MS (1:1 with anti-CD28) | fold expansion of human T cells at day 13, 5 ug anti-CD3 on APC-MS (1:1 with anti-CD28) | Substance
600 to 700 fold | 300 to 400 fold | 600 to 800 fold | muromonab (OKT3), anti-CD3 antibody
– | 300 to 400 fold | 600 to 800 fold | HIT3a, antibody recognizing 17-19 kD epsilon-chain of CD3 within the CD3 antigen/T cell antigen receptor (TCR) complex
– | – | 600 to 800 fold | UCHT1, monoclonal antibody recognizing a 20 kDa subunit of the TCR complex within CD3e
